Laboratory results: patent US20250369024A1, “Acyloin Condensation Reactions, Enzymes, and Products Thereof” (Mojia Biotech Pte. Ltd., priority 2023, published 2025)

Tests used:
Format in all cases: cell-based, E. coli
Acetaldehyde = test: HACS screening, acetaldehyde-C1 condensation (resting cells), lactic acid; details: 20 mM acetaldehyde and 20 mM formate, 3 hours
Source text: (§1) To implement the C1 elongation pathway for lactic acid production in vivo, we engineered vectors to independently control expression of various HACS candidates and the acyl-CoA transferase from Clostridium aminobutyricum (CaAbfT), with HACS under control of the IPTG-inducible T7 promoter in pCDFDuet-1 and CaAbfT under control of a cumate-inducible T5 promoter in pETDuet-1. As a host for these vectors, we used an engineered strain of E. coli based on MG1655(DE3) with knockouts for formaldehyde (ΔfrmA) and formate (ΔfdhF ΔfdnG ΔfdoG) oxidation as well as for glycolate utilization (ΔglcD).
(§2) In vivo product synthesis was conducted using M9 minimal media (6.78 g/L Na2HPO4, 3 g/L KH2PO4, 1 g/L NH4Cl, 0.5 g/L NaCl, 2 mM MgSO4, 100 μM CaCl2), and 15 μM thiamine-HCl) unless otherwise stated. Cells were initially grown in 96-deep well plates (USA Scientific, Ocala, FL) containing 0.5 mL of the above media further supplemented with 20 g/L glycerol, 10 g/L tryptone, and 5 g/L yeast extract. […]
(§3) Cells from the above pre-cultures were then centrifuged (4000 rpm, 22° C.), washed with the above minimal media without any carbon source, and resuspended with 1 mL of above minimal media containing indicated amounts of carbon source. […] After incubation at 30° C. for 3 hours, the cells were pelleted by centrifugation and the media was analyzed using HPLC.

Isovaleraldehyde = test: HACS screening, isovaleraldehyde-C1 condensation (resting cells), leucic acid; details: 20 mM isovaleraldehyde and 20 mM formate, 3 hours
Source text: as §1, with “leucic” for “lactic”
as §2, §3

Succinic semialdehyde = test: HACS screening, succinic semialdehyde-C1 condensation (resting cells), 2-hydroxyglutaric acid; details: 20 mM succinic semialdehyde and 20 mM formate, 3 hours
Source text: as §1, with “2-hydroxyglutaric” for “lactic”
as §2, §3

Formaldehyde = test: HACS screening, formaldehyde-formyl-CoA condensation in vivo (resting cells), glycolate; details: 2.5 mM formaldehyde and 20 mM formate, 0.5 hours
Source text: as §1, with “glycolate” for “lactic acid”, “pETDuet-1” for “pCDFDuet-1”, “pCDFDuet-1 (FIG. 14C).” for “pETDuet-1.”, “(ΔglcD), which we expected could compete or interfere with the analysis of our pathway (FIG. 14B).” for “(ΔglcD).”
In vivo product synthesis was conducted using M9 minimal media (6.78 g/L Na2HPO4, 3 g/L KH2PO4, 1 g/L NH4Cl, 0.5 g/L NaCl, 2 mM MgSO4, 100 μM CaCl2), and 15 μM thiamine-HCl) unless otherwise stated. […]
as §3, with “for 0.5” for “for 3”, “media” for “media was”, “analyzed (FIG. 14A).” for “analyzed using HPLC.”

B1: RuHACL: Engineered 2-hydroxyphytanoyl-CoA lyase [Rhodospirillales bacterium URHD0017], SEQ ID NO: 1 (protein)
chain: MSEVDGATLIARSLKQQGIDHLFGVVGFPITAIAAAAQKEGVAYLGMRNEQSAAYAAAAYGYLTGRPGAAVVVTGPGVVHGLSGLANAQQNCWPMILIGGASETYRGGMGAFQEERQVLIASPFCKFAHGIESVARIPFYVEMATRNAIYGRPGATYLDMPDDIIRGTCETDKIAQAERVPEAPRSVAPAENVEAALDLLEKAQRPLVLLGKGMAWSRGEDEVRAFIERTQVPFVRSPMGKGVMPDDHPLSASAARTLALQQADVIFLMGARLNWIFHFGLPPRYAKDVKVIQLDIAPEEIGHNKPTEVALVGDGKAIMAQLNKALVNRQWFHPKDTPWRQALTKKAAENVATIKPQVDDDQGPAGYYRALRDVAAWMPKNAILSAEGANTMDIGLTQLASSNARSVLNAGTYGTMGVGLGQAIAAAVSDPSRPVIHLSGDSAIGFSGMEMETLVRYNLPVKIVVLNNGGIGPGMPEIPENPMFNLKPNALIYGARYDKVMEAFGGKGIFVKEPKDIRKALDEAMAFKGPALVNVVLSQGSTRKAQQFAWHS
modifications: Rhodospirillales bacterium URHD0017 engineered 2-hydroxyphytanoyl-CoA lyase
Question: How did the “Product flux, substrate Acetaldehyde, product Lactate” value (Acetaldehyde) turn out when B1 was run?
Answer: 78.1 μM/OD/h

Question: And the “Product flux, substrate Isovaleraldehyde, product Leucic acid” value (Isovaleraldehyde)?
Answer: 12.5 μM/OD/h

Question: And the “Product flux, substrate Succinic semialdehyde, product 2-hydroxyglutarate” value (Succinic semialdehyde)?
Answer: 15.2 μM/OD/h

Question: And the “Product flux, substrate Formaldehyde, product Glycolate” value (Formaldehyde)?
Answer: 44.5 μM/OD/h
